The record followed here is US20250215412A1 (NOVOZYMES A S, published 2025).

Numbering of substitutions follows the chain as printed.

Common to all, as to experiment: cell-based or functional assay
Assay [1] has as its target T1, Chryseobacterium sp-62563 deamidase V190A (Chryseobacterium sp-62563).
T1 chain: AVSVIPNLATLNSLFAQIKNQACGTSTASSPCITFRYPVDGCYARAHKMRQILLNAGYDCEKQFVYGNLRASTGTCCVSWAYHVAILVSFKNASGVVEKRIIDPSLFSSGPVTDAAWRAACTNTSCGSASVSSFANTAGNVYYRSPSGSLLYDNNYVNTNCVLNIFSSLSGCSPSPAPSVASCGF

For assay [2], the target named is T2, Chryseobacterium sp-62563 deamidase S254K (Chryseobacterium sp-62563).
T2 chain: T1 chain with A81V, S145K

Assay [3] addresses T3, Chryseobacterium sp-62563 deamidase L259P (Chryseobacterium sp-62563).
T3 chain: T1 chain with A81V, L150P

Assay [4] addresses T4, Chryseobacterium sp-62563 deamidase V190F (Chryseobacterium sp-62563).
T4 chain: T1 chain with A81F

The target of assay [5] is T5, Chryseobacterium sp-62563 deamidase V190K (Chryseobacterium sp-62563).
T5 chain: T1 chain with A81K

For assay [6], the target named is T6, Chryseobacterium sp-62563 deamidase V190P (Chryseobacterium sp-62563).
T6 chain: T1 chain with A81P

Assay [7] concerns the target T7, Chryseobacterium sp-62563 deamidase V190D (Chryseobacterium sp-62563).
T7 chain: T1 chain with A81D

Assay [8] has as its target T8, Chryseobacterium sp-62563 deamidase S258E (Chryseobacterium sp-62563).
T8 chain: T1 chain with A81V, S149E

In assay [9] the target is T9, Chryseobacterium sp-62563 deamidase P255D (Chryseobacterium sp-62563).
T9 chain: T1 chain with A81V, P146D

Assay [10] addresses T10, Chryseobacterium sp-62563 deamidase Y261P (Chryseobacterium sp-62563).
T10 chain: T1 chain with A81V, Y152P

Assay [11] deals with T5, Chryseobacterium sp-62563 deamidase ….
For assay [12], the target named is T11, Chryseobacterium sp-62563 deamidase V190Q (Chryseobacterium sp-62563).
T11 chain: T1 chain with A81Q

For assay [13], the target named is T8, Chryseobacterium sp-62563 deamidase ….
Assay [14] has as its target T12, Chryseobacterium sp-62563 deamidase polypeptide (second polypeptide, deamidase domain), wildtype (Chryseobacterium sp-62563).
T12 chain: T1 chain with A81V

B1: Chryseobacterium sp-62563 propeptide (first polypeptide, propeptide domain), wildtype (other)
chain: NQDPNLVAKESNETAMKDFGKTVPVGIEKEDGKFKISFMVTAQPYEIKDSKENAAYISMIKTAVENETPIHVFLKANTNEIAKVDKATDDDIRYFKSVFTKEVKEENRK
For the molecule B1, the “NanoDSF thermal unfolding temperature” value in assay [1] was 68.6 ° C; in assay [2], 81.1 ° C; in assay [3], 80 ° C; in assay [4], 78.2 ° C; in assay [5], 76.4 ° C; in assay [6], 74.9 ° C. Besides, the entries for the “NanoDSF thermal unfolding temperature” value in [7], in assay [8] and in [9] were 75.4 ° C, 78.3 ° C and 81.4 ° C, respectively. Further, the “Relative activity of maturated deamidase” value in assay [10] was 32 % initial rate; in assay [11], 36 % initial rate; in [12] it was 96 % initial rate; in assay [13], not below 100 % initial rate; in assay [14] it was less than 20 % initial rate.
